Laboratory results taken from patent US20230078601A1 (CLEVELAND CLINIC FOUNDATION, published 2023).

Key:
rβ-Casein = molecular target: T1, rβ-Casein (mouse, UniProt P10598); experiment: competitive ELISA: 4D12G1 pre-incubated with rising rβ-casein, then added to plates coated with rhAMHR2-ED
T1 construct: recombinant; also called recombinant mouse β-casein; recombinant β-casein
Description: The specificity of the mAbs was determined by competitive ELISA. Briefly, mAbs were incubated with increasing concentrations of rhAMHR2-ED in liquid phase PBS containing 0.02% Tween-20 (Bio-Rad) for 24 hours at 4° C. The antigen-antibody mixtures were added to the 96-well Maxisorp microtiter plates (Corning Life Sciences, Tewksbury, Mass.) pre-coated with 4 μg/ml rhAMHR2-ED followed by blocking with 1% BSA (Sigma-Aldrich). Recombinant mouse β-casein was used as the specificity control. Wells were then incubated with a secondary anti-mouse IgG conjugated with horseradish peroxidase (HRP; MilliporeSigma, Burlington, Mass.) followed by addition of 2,2′-Azino-bis(3-ethylbenzothiazoline-6-sulfonic acid) diammonium salt (ABTS) substrate (Sigma-Aldrich). Optical density was determined by absorbance at 405 nm.

[1] = molecular target: T2, AMHR2-ED 22-26 5-mer peptide (LGELL) (human); experiment: SPOT peptide array, 4D12G1 at 1.0 ug/ml, chemiluminescence
T2 construct: Synthesised on a cellulose membrane (SPOT peptide array); also called 22LGELL26; Residues 22-26 of AMHR2-ED and 39-43 of AMHR2
T2 peptide: LGELL
Description: (§1) The AMHR2-ED binding sequence of the 4D12G1 mAb and the critical AMHR2-ED residues for such binding were confirmed by SPOT peptide arrays. Peptides spanning the AMHR2-ED 9-40 immunoreactive region and ranging from 4-16-mers in length were synthesized >90% pure on cellulose membranes (JPT Peptide Technologies, Berlin, Germany), treated overnight with blocking buffer (Thermo Fisher), followed by treatment with the 4D12G1 mAb at 1.0 μg/ml for 3 hours at room temperature, followed by three washes with PBS containing 0.01% Tween-20 (Bio-Rad). The membranes were then treated with a 1:10,000 dilution of an HRP-conjugated rabbit anti-mouse IgG (MilliporeSigma) followed by three washes with PBS containing 0.01% Tween-20 (Bio-Rad). Bound antibody was detected using the HyGLO chemiluminescence system (Thomas Scientific).
An overlapping series of 16-mer peptides spanning the entire 132 amino acid sequence of human AMHR2-ED (FIG. 3A) with moving single amino acid shifts were plated for direct ELISA testing using the 4D12G1 mAb as primary antibody. […] To determine amino acids recognized by the 4D12G1 mAb, an overlapping series of peptides spanning the immunoreactive sequence comprising AMHR2-ED 13-30 were synthesized with alanine substitutions at each N-terminal residue or with glycine substitutions for any native N-terminal alanine. […] Bound antibody was detected by chemiluminescence.

p20-26 = molecular target: T3, p20-26; experiment: SPOT peptide array on cellulose membrane, 4D12G1 at 1.0 µg/ml, chemiluminescence
T3 construct: SPOT array peptide on cellulose membrane; residues 20-26 of AMHR2-ED; also called AMHR2-ED 20-26 7-mer peptide; KTLGELL
T3 peptide: KTLGELL
Description: as §1
(§2) An overlapping series of 16-mer peptides spanning the entire 132 amino acid sequence of human AMHR2-ED (FIG. 3A) with moving single amino acid shifts were plated for direct ELISA testing using the 4D12G1 mAb as primary antibody. […] To determine amino acids recognized by the 4D12G1 mAb, an overlapping series of peptides spanning the immunoreactive sequence comprising AMHR2-ED 13-30 were synthesized with alanine substitutions at each N-terminal residue or with glycine substitutions for any native N-terminal alanine. These peptides were used in competitive ELISAs to determine which residues inhibit binding of the 4D12G1 mAb with solid phase rhAMHR2-ED. […] To determine the minimal AMHR2-ED sequence involved in the binding of the 4D12G1 mAb, SPOT peptide arrays were generated spanning the immunoreactive region of AMHR2-ED. Peptides ranging from 4-16-mers in length were immobilized on cellulose membranes and treated with the 4D12G1 mAb. Bound antibody was detected by chemiluminescence.

p21-36 = molecular target: T4, p21-36; experiment: as above
T4 construct: SPOT array peptide on cellulose membrane; also called AMHR2-ED 21-36 16-mer peptide
T4 peptide: TLGELLDTGTELPRAI
Description: as §1, §2

p22-37 = molecular target: T5, p22-37; experiment: as above
T5 construct: SPOT array peptide on cellulose membrane; also called AMHR2-ED 22-37 16-mer peptide
T5 peptide: LGELLDTGTELPRAIR
Description: as §1, §2

p20-35 = molecular target: T6, p20-35; experiment: as above
T6 construct: SPOT array peptide on cellulose membrane; also called AMHR2-ED 20-35 16-mer peptide
T6 peptide: KTLGELLDTGTELPRA
Description: as §1, §2

T1 sequence (P10598 16-231 limits assumed): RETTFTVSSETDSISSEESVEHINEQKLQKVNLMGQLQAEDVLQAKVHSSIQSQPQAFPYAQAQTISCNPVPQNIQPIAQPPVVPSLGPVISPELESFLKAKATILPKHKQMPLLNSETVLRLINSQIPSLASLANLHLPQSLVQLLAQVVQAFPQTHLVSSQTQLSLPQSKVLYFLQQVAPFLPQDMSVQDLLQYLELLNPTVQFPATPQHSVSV

binding result (rβ-Casein): no binding (tested: 100 µg/ml)
binding result [1]: binds
binding result (p20-26): binds
binding result (p21-36): binds
binding result (p22-37): binds
binding result (p20-35): binds
B1: 4D12G1 mAb (antibody, IgG1, V domains shown)
VH: DVKLVESGGGLVKLGGSLKLSCAASGFTFSRYFMSWVRQTPEKRLELVAAINSDGGRTYYPDTVKGRFTISRDNAKNTLYLQMSSLKSEDTALYYCTRHIYSYYEDYFDYWGQGTTLTVSS
VL: DVVMTQTPLSLPVSLGDQASISCRSSQSLVHSNGNTYLHWYLQKPGQSPKLLIYKVSKRFSGVPDRFSGSGSGTDFTLKISRVEAEDLGVYFCSQSTHVYTFGGGTKLEIK
notes: also called 4D12G1 IgG1 mAb
